Data on two substances can be found in article PMC4956256.

pKd: −log10 of the molar value.

The target of experiment [1] is TV1.C gp120 monomer (HIV-1 subtype C, strain TV1.C). The experiment can be described thus: SEC + other: SDS-PAGE; purified TV1.C gp120; SDS-PAGE under reduced and non-reduced conditions; SEC-HPLC under non-reduced and reduced (otherwise native) conditions. (In general: In gel filtration, larger molecules generally elute earlier.)
The target in experiment [2] is soluble CD4 receptor ligand, CD4-Fc (sCD4) (UniProt P01730). Kind of experiment: SPR; BIAcore 3000; about 200 RU of sCD4 immobilised directly on a CM5 chip by amine coupling; varying concentrations of gp120 injected at 100 ul/min; 25°C; PBS + 0.1% BSA; 1:1 Langmuir fit. In general terms: Surface plasmon resonance follows binding to a sensor surface in real time, without labels.

Usually stoichiometry N stands for the number of molecules, sites or subunits per partner or assembly. What is called pKd is the Kd on a negative log10 scale, so that one unit is a factor of ten. For TV1.C gp120 monomer (natural protein), the stoichiometry N in experiment [1] turned out to be 2. In experiment [2], the pKd was 6.83.

With 1086.C gp120 monomer (natural protein), the pKd in experiment [2] was 7.58.
